According to IntAct's records for PubMed 24895401:

B1: Ras GTPase-activating-like protein IQG1 (Saccharomyces cerevisiae), Q12280 (parent)
chain: MTAYSGSPSKPGNNNSYLNRYVENLGTNVTPPLRPQSSSKINSSLNIASPSHLKTKTSASNSSATILSKKVESSVSKLKPSLPNKLVGKYTVDLSNYSKIELRYYEFLCRVSEVKIWIEAVIEEALPSEIELCVGDSLRNGVFLAKLTQRINPDLTTVIFPAGDKLQFKHTQNINAFFGLVEHVGVPDSFRFELQDLYNKKNIPQVFETLHILISMINKKWPGKTPALTNVSGQISFTKEEIAACKKAWPRIRDFKSLGTNINTAPASPEEPKEKRSGLIKDFNKFERPNIPVEEILITPRKNITDANCSDFSNTPSPYNEAPKMSNLDVVVEKRKFTPIEPSLLGPTPSLEYSPIKNKSLSYYSPTISKYLTYDTEFYTRRSRAREEDLNYYQTFKYSPSHYSPMRRERMTEEQFLEKVVQLQNICRGVNTRFNLYIQKRLLNLFEQDILRFQACLRGNKFRVLSSMYLPIRRAKIDVPHVEAIQSRIKGSRIRYKYDKLKFTLSRFSCTVELLQAYCRSKLLKTTVNTKLNDIEISHYPLTKLQSYMRASYVRKKVMSLNTKLNDERESIMKFSAIIRGNVVRCSEDAILSAVHDVHKENISKLQSLIRGIFTRSCLASIIYSLGKENCNIIQLSACIRGNAVRHKVQSLFAPENNLSETVHDLQGLVRGILVRYTLDLVDDIVEYNNLALFQAFSRGALVRESLDQKSSFYKRNVRSVIMIQSWIRKSLQRSAYLELLDCPNPSLWAVKKFVHLLNGTATIEEVQNQLESCQASLDSENMKKERLLKSIRQQLNINGVLDKFGLLKDKDHELGISDSTIPKSKYQKYEKLFYMLQVDPSYWKLLYLKEPEFVAKNVYMTFGTVNQRMNDRERSYFTRFVCEMLQNAINEAPSIESFLDNRSQFWQTILQDFLRRESPEFFSIIVPVLDYLSDPVVDFESDPYKIYQEIHGFSSPQHCSPVDDASTKNKFIDNLRCLWHAIEMVAEIYTRKVHTIPVEIRYLCTKIFCYAADKNIEEIDSLRAISSILVNVFVSEYLVNREYYGYKDSNVQKNNQKIDILMKSLATVFEIKNFDGFLDPLNQYANEIKPHIKDVLYNVLVDPEYEQEGDRLIYLDMVSPSPKLELLTEKVLEISGKFEEYLNEFPEADILHDILEKNLDNSSFPRSGRVTLELDASAYRFLVSDDKMRKIYDQVKRAFVYMMQIEDVDTNLYDLSISTILPQDEPNFANFLEQNPKIRDDPMIQKLKPLKYFTLKNVTLKKIHELESTGTFCSSDNKLQNFLNDIANTIKNPNYAIDYVTQEIYITKETLTKISEMNHSLDIELSRLKKHVDHTIKDFQKAKDFSPVHKSKFGNFKNAVKKVQGRERSELQGMKFKWNTKQLYERGVLKTIRGEKLAELTVKVFGSSGPKFPDIIFKISTSDGSRFGIQMIDKRKGPDKRYSDDVDSFSFKDLIKTQVEPKIETWKLFHSNVVVNNSQLLHLIVSFFYKRNAL
partner: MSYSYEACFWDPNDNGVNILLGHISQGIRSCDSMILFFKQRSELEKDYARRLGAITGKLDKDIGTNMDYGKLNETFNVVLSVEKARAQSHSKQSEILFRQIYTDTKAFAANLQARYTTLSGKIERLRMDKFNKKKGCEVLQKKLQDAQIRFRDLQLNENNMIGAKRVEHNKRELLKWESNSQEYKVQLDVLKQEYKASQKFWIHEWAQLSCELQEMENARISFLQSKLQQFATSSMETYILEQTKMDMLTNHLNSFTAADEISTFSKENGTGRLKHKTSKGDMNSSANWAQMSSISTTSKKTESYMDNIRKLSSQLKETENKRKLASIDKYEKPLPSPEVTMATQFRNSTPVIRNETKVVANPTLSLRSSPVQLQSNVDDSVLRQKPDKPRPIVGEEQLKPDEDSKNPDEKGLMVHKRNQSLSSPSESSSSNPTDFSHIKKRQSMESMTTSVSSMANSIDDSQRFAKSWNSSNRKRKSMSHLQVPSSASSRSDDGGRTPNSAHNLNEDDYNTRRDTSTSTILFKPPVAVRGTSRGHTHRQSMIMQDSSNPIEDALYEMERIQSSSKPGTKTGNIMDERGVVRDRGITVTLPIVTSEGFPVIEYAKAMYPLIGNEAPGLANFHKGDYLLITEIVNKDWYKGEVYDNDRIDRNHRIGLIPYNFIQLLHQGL

Variants of: B1
Conditions: with cyk2_yeast HOF1, Q05080

Row | Variant | effect of a mutation on the interaction
1 | Q667S | disrupting interaction strength
2 | Q667S;Q695S | disrupting interaction strength
3 | Q695S | disrupting interaction strength
4 | Q725S | with no effect
